Reference: patent publication US20080044414A1 (published 2008)
Residue numbers refer to the chain shown, from its start. Several values for one entry are separate records, joined by “and”; a condition that tells them apart may be missing. Identical values can stand only once. Like-named read-outs stand apart in the source and are kept apart here.

T1: rhesus macaque IL-1β (rhesus macaque, UniProt P48090 117-269)
T1 sequence (looked up): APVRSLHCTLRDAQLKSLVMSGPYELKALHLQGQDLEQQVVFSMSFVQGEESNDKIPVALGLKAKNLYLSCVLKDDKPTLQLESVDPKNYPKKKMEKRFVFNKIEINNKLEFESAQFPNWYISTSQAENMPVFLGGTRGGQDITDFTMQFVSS

T2: soluble IL-1 receptor type I (IL-1 sRI) (UniProt P14778 18-336)
T2 construct: extracellular domain; also called IL-1RI
T2 sequence (looked up): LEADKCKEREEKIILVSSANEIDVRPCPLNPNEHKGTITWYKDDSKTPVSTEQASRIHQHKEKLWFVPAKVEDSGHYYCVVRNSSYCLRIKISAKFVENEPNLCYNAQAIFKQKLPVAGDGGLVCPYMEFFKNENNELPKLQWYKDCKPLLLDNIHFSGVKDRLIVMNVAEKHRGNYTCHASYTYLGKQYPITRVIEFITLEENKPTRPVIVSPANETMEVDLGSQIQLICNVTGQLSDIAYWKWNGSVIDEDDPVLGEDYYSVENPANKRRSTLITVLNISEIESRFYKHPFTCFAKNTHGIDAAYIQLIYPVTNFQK

T3: guinea pig IL-1β (guinea pig, UniProt Q9WVG1 115-266, limits assumed)
T3 sequence (looked up): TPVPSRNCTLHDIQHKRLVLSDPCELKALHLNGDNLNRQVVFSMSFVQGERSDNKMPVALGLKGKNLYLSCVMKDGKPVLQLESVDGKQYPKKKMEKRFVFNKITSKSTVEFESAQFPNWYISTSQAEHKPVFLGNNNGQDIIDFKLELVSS

T4: dog IL-1β (dog, UniProt Q28292 115-266)
T4 sequence (looked up): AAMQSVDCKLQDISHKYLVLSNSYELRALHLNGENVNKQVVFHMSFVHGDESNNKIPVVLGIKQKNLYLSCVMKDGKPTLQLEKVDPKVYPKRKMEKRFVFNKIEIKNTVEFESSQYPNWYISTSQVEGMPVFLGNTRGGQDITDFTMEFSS

T5: rabbit IL-1β (rabbit, UniProt P14628 117-268)
T5 sequence (looked up): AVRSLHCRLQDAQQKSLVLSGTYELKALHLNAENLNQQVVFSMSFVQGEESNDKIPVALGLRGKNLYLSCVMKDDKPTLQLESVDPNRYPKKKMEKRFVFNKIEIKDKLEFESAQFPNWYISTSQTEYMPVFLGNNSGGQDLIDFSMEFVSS

B1: AB7 (antibody, V domains shown)
VH: QVQLQESGPGLVKPSQTLSLTCSFSGFSLSTSGMGVGWIRQPSGKGLEWLAHIWWDGDESYNPSLKSRLTISKDTSKNQVSLKITSVTAADTAVYFCARNRYDPPWFVDWGQGTLVTVSS
VL: DIQMTQSTSSLSASVGDRVTITCRASQDISNYLSWYQQKPGKAVKLLIYYTSKLHSGVPSRFSGSGSGTDYTLTISSLQQEDFATYFCLQGKMLPWTFGQGTKLEIK
notes: Human engineered antibody
B2: AB5 (antibody, V domains shown)
VH: QVTLKESGPGILKPSQTLSLTCSFSGFSLSTSGMGVGWIRQPSGKGLEWLAHIWWDGDESYNPSLKTQLTISKDTSRNQVFLKITSVDTVDTATYFCARNRYDPPWFVDWGQGTLVTVSS
VL: DIQMTQTTSSLSASLGDRVTISCRASQDISNYLSWYQQKPDGTVKLLIYYTSKLHSGVPSRFSGSGSGTDYSLTISNLEQEDIATYFCLQGKMLPWTFGGGTKLEIK
notes: also called AB5 (invention)
B3: AB3 (antibody, V domains shown)
VH: B2 VH with N100F
VL: B2 VL
B4: AB2 (antibody, V domains shown)
VH: B2 VH with N100V
VL: B2 VL
B5: AB1 (antibody, V domains shown)
VH: B2 VH with N100A
VL: B2 VL
notes: also called AB1 (invention)
B6: AB-control (antibody, V domains shown)
VH: B2 VH with Q68R, D74N, S86T
VL: B2 VL with S72F
notes: must be checked against the listing

Experiments:
rhesus macaque IL-1β = molecular target: T1, rhesus macaque IL-1β; assay: cell-based or functional assay
[1] = molecular target: T2, soluble IL-1 receptor type I (IL-1 sRI); assay: Biacore, AB7 immobilized on CM-5 chip, IL-1 sRI injected
Description: Using HBS-EP (Biacore®, Inc.) as running buffer, the temperature was set to 25° C., the flow rate was set to 10 μL/min, and the flow path was directed to flow cell 2 only. 135 μL of each of NHS and ECD solutions (Biacore®, Inc.) were mixed, and 70 μL of the NHS/ECD solution was immediately injected in the flow path. […] To prepare a reference surface, the flow path was changed to flow cell 1 only. 135 μL of each of NHS and ECD solutions (Biacore®, Inc.) were mixed, and 70 μL of the NHS/ECD solution was immediately injected in the flow path, followed by 70 μL 1M Ethanolamine (Biacore®, Inc.).
The flow rate was set to 10 μL/min. The flow path for the Biacore® instrument was set to flow cells 1 and 2, and reference subtraction of flowcell 2 from flowcell 1 was used to determine a response differential.

guinea pig IL-1β = molecular target: T3, guinea pig IL-1β; assay: immunoprecipitation with AB7 and protein A-Sepharose from PBMC supernatant, Western blot with AB7
Description: (§1) Fresh heparanized whole blood from rhesus macaque, cynomolgus monkey, dog, guinea pig and rabbit was obtained from Charles River Labs. The whole blood was separated by Ficoll density gradient centrifugation and peripheral blood mononuclear cells (PBMC's) were isolated. For each species' PBMC, 2.5×10⁵ cells/ml were incubated in peripheral RPMI media with and without 50 ng/ml Lipopolysaccharide LPS (E. Coli 055:B5), and supernatants were collected at 24 hours post-stimulation. LPS is intended to stimulate the production of IL-1β by the PBMC's. […] Human IL-1β (Peprotech) was spiked into RPMI and run as immunoprecipliation/Western blot controls. After centrifugation and washing of the Protein A-Sepharose beads, all samples were loaded onto a SDS-PAGE gel and run at 120V for 1 hour. […] A secondary goat anti-human IgG antibody conjugated with horseradish peroxidase (HRP) was added following wash steps and detection was with one step tetramethyl benzidine (TMB) solution.

dog IL-1β = molecular target: T4, dog IL-1β; assay: immunoprecipitation with AB7 from LPS-stimulated PBMC supernatant, Western blot with AB7 (FIG. 16)
Description: as §1

rabbit IL-1β = molecular target: T5, rabbit IL-1β; assay: as above
Description: as §1

human IL-1β [2] = molecular target: T6, human IL-1β (human, UniProt P01584 117-269); assay: cell-based or functional assay
human IL-1β [3] = molecular target: T6, human IL-1β; assay: cell-based or functional assay; remark: listed apart in the source
human IL-1β [4] = molecular target: T6, human IL-1β; assay: KinExA kinetic exclusion assay
Description: KD values represent the binding dissociation constants for the respective antibody-IL-1β complexes. KD was calculated as the ratio of “off rate” (rate of dissociation for the antibody-IL-1β complex) to “on rate” (rate of association for the antibody-IL-1β complex).

human IL-1β [5] = molecular target: T6, human IL-1β; assay: KinExA kinetic exclusion assay; remark: listed apart in the source
Description: The KINEXA™ device performs a kinetic exclusion assay, and fits the data to various theoretical curves and thus determines KD as well as other properties, such as 95% confidence intervals for KD. The KINEXA™ device is generally more sensitive than other devices (e.g., a BiaCore device) for analysis of affinity characteristics such as dissociation constants and off-rates.

human IL-1β [6] = molecular target: T6, human IL-1β; assay: cell-based or functional assay; remark: listed apart in the source

Binder | IC50, inhibition of IL-1β stimulated release of IL-6 from human MRC5 fibroblasts (human IL-1β [2]) | Kd (human IL-1β [4]) | IC50, inhibition of IL-1β stimulated release of IL-6 from human fibroblasts (FIG. 10) (human IL-1β [6]) | IC50 of an individual assay, IL-6 release from human fibroblasts (human IL-1β [6]) | mean IC50, inhibition of IL-1β stimulated release of IL-6 from human fibroblasts (human IL-1β [6]) | further results
B1 | – | – | – | – | – | mean IC50, inhibition of IL-1β stimulated proliferation of D10.G4.1 cells (10 pg/ml recombinant rhesus IL-1β) (rhesus macaque IL-1β): 0.0027 nM; binding result [1]: no binding (tested: 10 ug/mL); binding result (guinea pig IL-1β): no binding; binding result (dog IL-1β): binds; binding result (rabbit IL-1β): binds
B2 | 0.014 nM | 0.000261 nM | – | – | – | IC50, inhibition of IL-1β stimulated release of IL-6 from human fibroblasts (human IL-1β [3]): 0.0049 nM; Kd (human IL-1β [5]): 0.00024 nM
B3 | – | – | 0.214 nM | – | – | –
B4 | – | – | 0.076 nM | – | – | –
B5 | 0.15 nM | 0.0186 nM | 0.029 nM | 0.035 nM and 0.03 nM and 0.052 nM | 0.0667 nM | –
B6 | 0.017 nM | 0.00306 nM | – | 0.005 nM and 0.0049 nM | 0.0089 nM | –
